The DeepSol protein solubility set

Test: soluble on expression in E. coli; label from the status in PepcDB or PDB records

Sequence	soluble on expression in E. coli
MGHHHHHHSHMASGSNWLSGVNVVLVMAYGSLDLKEEIDIRLSRVQDIKYEPQLLADDDARLLQLETQGNQKIPFHSEGRHPRSLMGKNFRSYLLDLRNTSTPFKGVRKALIDTLLDGYETARYGTGVFGQNEYLRYQEALSELATAVKARIGSSQRHHQSAAKDLTQSPEVSPTTIQVTYLPSSQKSKRAKHFLELKSFKDNYNTLESTL	not soluble
MGHHHHHHSHMATASPSVFLLMVNGQVESAQFPEYDDLYCKYCFVYGQDWAPTAGLEEGISQITSKSQDVRQALVWNFPIDVTFKSTNPYGWPQIVLSVYGPDVFGNDVVRGYGAVHVPFSPGRHKRTIPMFVPESTSKLQKFTSLCLVASSDLQAAPPTEDK	not soluble
MGHHHHHHSHMFPQAQESPAAVEVLTQVVHPSAAMASQERAQVAFKKMVQGVLQFAVCDTAAAGQLVKDGVTQVVVSEEGAVHMVAGEGAQIIMQEAQGEHMDLVESDGEISQIIVTEELVQAMVQESSGGFSEGTTHYILTELPPGVQGEPGLYSHTVLETADSQELLQAGATLGTEAGAPSRAEQLASVVIYTQEGSSAAAAIQSQRESSELQEA	not soluble
MGHHHHHHSHMGEGQIPPAHDSSIFISCDVLLKKISINTRTWLPCSISCSASLLENSPFYFTLFVCDYISHSFHLLINIFSEIMSYHGNGGYNAPYGGHGGYAPPPVHGAPGYMPPTVVHTDGGHHGHVDTHHHEESHHGEHHGGHHGVQHYESHHESHHHGGHHGHH	not soluble
MGHHHHHHSHMGEIESYCNKELGPLPTKAPTLSKNVLDLFSLKGKVASVTGSSGGIGWAVAEAYAQAGADVAIWYNSHPADEKAEHLQKTYGVHSKAYKCNISDPKSVEETISQQEKDFGTIDVFVANAGVTWTQGPEIDVDNYDSWNKIISVDLNGVYYCSHNIGKIFKKNGKGSLIITSSISGKIVNIPQLQAPYNTAKAACTHLAKSLAIEWAPFARVNTISPGYIDTDITDFASKDMKAKWWQLTPLGREGLTQELVGGYLYLASNASTFTTGSDVVIDGGYTCP	not soluble
MGHHHHHHSHMGKITFYEDRAFQGRSYETTTDCPNLQPYFSRCNSIRVESGCWMLYERPNYQGQQYLLRRGEYPDYQQWMGLSDSIRSCCLIPQTVSHRLRLYEREDHKGLMMELSEDCPSIQDRFHLSEIRSLHVLEGCWVLYELPNYRGRQYLLRPQEYRRCQDWGAMDAKAGSLRRVVDLY	soluble
MGHHHHHHSHMGNNSESKGSASDSKGAETFTYKAENGNVKIPKHPKRVVVMADGYYGYFKTLGINVVGAPENVFKNPYYKGKTNGVENIGDGTSVEKVIDLNPDLIIVWTTQGADIKKLEKIAPTVAVKYDKLDNIEQLKEFAKMTGTEDKAEKWLAKWDKKVAAAKTKIKKAVGDKTISIMQTNGKDIYVFGKDFGRGGSIIYKDLGLQATKLTKEKAIDQGPGYTSISLEKLPDFAGDYIFAGPWQSGGDDGGVFESSIWKNLNAVKNGHVYKMDPIGFYFTDPISLEGQLEFITESLTK	soluble
MGHHHHHHSHMHAPLSLLKQMLKEHQIDTEKAVTFEEYIAMRLKLQELMGKFASIGEWDLYQKAADLMMHIGIQWMK	not soluble
MGHHHHHHSHMHPWNQQVPDKESGGGSHGNAASSCSRFHYSYAGVHSESTHFSLVLLLDWAMAFILCPLTCPGECEGSTGKLECCLCLPSQWAVLTAAPHPYRWSQEAGRVGEGKIGKTGRPRPRQNSLPSLHFWSPVVMCL	not soluble
MGHHHHHHSHMIKRSSECNPLLQEPIASAQFGATAGTECRKSVPCGWERVVKQRLFGKTAGRFDVYFISPQGLKFRSKSSLANYLHKNGETSLKPEDFDFTVLSKRGIKSRYKDCSMAALTSHLQNQSNNSNWNLRTRSKCKKDVFMP	soluble
MGHHHHHHSHMKPLIWTWSDVEGQRPALLICTAAAGPTQGVKGYGKPFEPRSVKNIHSTPAYPDATMHRQLLAPVEGRMAETLNQKLHVANVLEDDPGYLPHVYSEEGECGGAPSLSSLASLEQELQPDLLDSLGSKATPFEEIYSESGVPS	not soluble
MGHHHHHHSHMLVLRSGLTKALASRTLAPQVCSSFATGPRQYDGTFYEFRTYYLKPSNMNAFMENLKKNIHLRTSYSELVGFWSVEFGGRTNKVFHIWKYDNFAHRAEVRKALANCKEWQEQSIIPNLARIDKQETEITYLIPWSKLEKPPKEGVYELAVFQMKPGGPALWGDAFERAINAHVNLGYTKVVGVFHTEYGELNRVHVLWWNESADSRAAGRHKSHEDPRVVAAVRESVNYLVSQQNMLLIPASFSPLK	not soluble
MGHHHHHHSHMMEGLDDGPDFLSEEDRGLKAINVDLQSDAALQVDISDALSERDKVKFTVHTKSSLPNFKQNEFSVVRQHEEFIWLHDSFVENEDYAGYIIPPAPPRPDFDASREKLQKLGEGEGSMTKEEFTKMKQELEAEYLAIFKKTVAMHEVFLCRVAAHPILRRDLNFHVFLEYNQDLSVRGK	not soluble
MGHHHHHHSHMMQSVDVVIIGGGMVGLALAAALKESDLRIAVVENQLPEEALNPLPDVRVSALSRSSEIVLRNLNAWAGIEARRAAPYIAMEVWEQDSFARIEFKANEMTQPNLGHIVENRVIQLALFEQVQQQANVTLHVPATCQSIAVGESEAWLTLSNGQALSAKLVVGADGANSWLRRQMDIPLTHWDYGHSALVANVRTSDPHNKVARQIFTAQGPLAFLPMSEPHMSSIVWSTEPSRAEALLNMNDVQFNKALTAEFDARLGRCEVVGERQAFPLKMRYARDFVAPRVALVGDAAHTIHPLAGQGVNLGLLDAACLAQELLSLWQQNRDIGDERNLRHYERWRKAEAAKMIAAMQGFRDLFEGDNPAKKLIRGIGMRLVGQLPGAKDEIMKRALGLKGDLPELAKQVWLERAY	soluble
MGHHHHHHSHMNRLPDDYDPYAVEEPSDEEPALSSSEDEVDVLLHGTPDQKRKLIRECLTGESESSSEDEFEKEMEAELNSTMKTMEDKLSSLGTGSSSGNGKVATAPTRYYDDIYFDSDSEDEDRAVQVTKKKKKKQHKIPTNDELLYDPEKDNRDQAWVDAQRRGYHGLGPQRSREQQPVPNSDAVLNCPACMTTLCLDCQRHESYKTQYRAMFVMNCSINKEEVLRYKASENRKKRRVHKKMRSNQEDAAEKAETDVEEIYHPVMCTECSTEVAVYDKDEVFHFFNVLASHS	not soluble
MGHHHHHHSHMPTTSRPALDVKGGTSPAKEDANQEMSSVAYSNLAVKDRKAVAILHYPGVASNGTKASGAPTSSSGSPIGSPTTTPPTKPPSFNLHPAPHLLASMQLQKLNSQYQGMAAATPGQPGEAGPLQNWDFGAQAGGAESLSPSAGAQSPAIIDSDPVDEEVLMSLVVELGLDRANELPELWLGQNEFDFTADFPSSC	not soluble
MGHHHHHHSHMQLVRDLLEVTSGLISDDIINMRNDLYQTPLHLAVITKQEDVVEDLLRAGADLSLLDRLGNSVLHLAAKEGHDKVLSILLKHKKAALLLDHPNGDGLNAIHLAMMSNSLPCLLLLVAAGADVNAQEQKSGRTALHLAVEHDNISLAGCLLLEGDAHVDSTTYDGTTPLHIAAGRGSTRLAALLKAAGADPLVENFEPLYDL	not soluble
MGHHHHHHSHMQQQETNLLANLTTNDARDNSKDFQNSKVGAAATSRDEGCNCPIIGEIVISCYWLFEIPPLISE	soluble
MGHHHHHHSHMRKNESYLNQPAPPIPIPTLSLMGGCREHFENHWKGRARWLMPVIPALWEAKAGRSPEVRSSKPAWPTWRNPIFTKNTKISQVLELFLNYQSLICALEKQKRQKGSLAIFCWSFQGGCVSKRPDVPSLKSQKPKRKRITGRKRLSKGSWSLLFSNLGRF	soluble
MGHHHHHHSHMRPLTEEETRVMFEKIAKYIGENLQLLVDRPDGTYCFRLHNDRVYYVSEKIMKLAANISGDKLVSLGTCFGKFTKTHKFRLHVTALDYLAPYAKYKVWIKPGAEQSFLYGNHVLKSGLGRITENTSQYQGVVVYSMADIPLGFGVAAKSTQDCRKVDPMAIVVFHQADIGEYVRHEETLT	soluble
MGHHHHHHSHMRPRRPHQIADLFRPKDQIAYSDTSPFLILSEASLADLNSRLEKKVKATNFRPNIVISGCDVYAEDSWDELLIGDVELKRVMACSRCILTTVDPDTGVMSRKEPLETLKSYRQCDPSERKLYGKSPLFGQYFVLENPGTIKVGDPVYLLGQ	not soluble
MGHHHHHHSHMSAFASSDRAEKSGIALEAQQKIYEKYDKNLAGEILQWVQNVTGQSFDTQGDADNLVKVFQDGSLLCTLANSLKPGSVKKVNTSAMAFKKMENISFFLKFAEEYVQKSELFQTVDLYEGQDPNAVLICLASLARKSEKNFGRSGLGPKEAQGDRREWTDEQLKAGHNVIGLQMGSNKGATASGLNMGNTRHM	soluble
MGHHHHHHSHMSEPGKGDDCLELESSMAESRLRAPDLGVSRCLGKCQKNSPGARKHPFSGKSFYLDLPAGKNLQFLTGAIQQLGGVIEGFLSKEVSYIVSSRREVKAESSGKSHRGCPSPSPSEVRVETSAMVDPKGSHPRPSRKPVDSVPLSRGKELLQKAIRNQVSWGKMGQSRWSPA	not soluble
MGHHHHHHSHMSETSFNLISEKCDILSILRDHPENRIYRRKIEELSKRFTAIRKTKGDGNCFYRALGYSYLESLLGKSREIFKFKERVLQTPNDLLAAGFEEHKFRNFFNAFYSVVELVEKDGSVSSLLKVFNDQSASDHIVQFLRLLTSAFIRNRADFFRHFIDEEMDIKDFCTHEVEPMATECDHIQITALSQALSIALQVEYVDEMDTALNHHVFPEAATPSVYLLYKTSHYNILYAADKH	soluble
MGHHHHHHSHMSLFSGTIQNLENALSRADIKQKVITNNIANIDTPNYKAKKVSFQNLLDQESSRLEAIKTDYRHVDFSDTDSNYSIVASGDTSYQQNGNNVDVDKEMTELAQNQINYQALVERMNGKFNSLKTVLTGGK	not soluble
MGHHHHHHSHMSVAGGEIRGDTGGEDTAAPGRFSFSPEPTLEDIRRLHAEFAAERDWEQFHQPRNLLLALVGEVGELAELFQWKTDGEPGPQGWSPRERAALQEELSDVLIYLVALAARCRVDLPLAVLSKMDINRRRYPAHLARSSSRKYTELPHGAISEDQAVGPADIPCDSTGQTST	soluble
MGHHHHHHSHMTDQTYCDRLVQDTPFLTGHGRLSEQQVDRIILQLNRYYPQILTNKEAEKFRNPKASLRVRLCDLLSHLQRSGERDCQEFYRALYIHAQPLHSRLPSRHALRKFHITNHACLVLARGGHPSLPLMAWMSSMTTQVCCSPGLASPLASAPPQRPPSGPEGRVWQAQAVQMLVSVSHFLPLPPSLSHGSFHTAWGILYVHSCPSFSNLIPRGSLHVCVDSNLVPTAAWRS	not soluble
MGHHHHHHSHMTSFEDADTEETVTCLQMTVYHPGQLQCGIFQSISFNREKLPSSEVVKFGRNSNICHYTFQDKQVSRVQFSLQLFKKFNSSVLSFEIKNMSKKTNLIVDSRELGYLNKMDLPYRCMVRFGEYQFLMEKEDGESLEFFETQFILSPRSLLQENNWPPHRPIPEYGTYSLCSSQSSSPTEMDENES	not soluble
MGHHHHHHSHMVSTATHSLSRLHTMLTGLRNAPSEKLEQILRTCSRDPTQAIANRLKEMFEIYSQHFQPDEDFSNCAKEIASKHFRFAEMLYYKVLESVIEQEQKRLGDMDLSGILEQDAFHRSLLACCLEVVTFSYKPPGNFPFITEIFDVPLYHFYKVIEVFIRAEDGLCREVVKHLNQIEEQILDHLAWKPES	not soluble
MGHHHHHHSHPQDNDFLSRKAQDCYFMKLHHCPGNHSWDSTISGSQRAAFCDHKTTPCSSAIINPLSTAGNSERLQPGIAQQWIQSKREDIVNQMTEACLNQSLDALLSRDLIMKEDYELVSTKPTRTSKVRQLLDTTDIQGEEFAKVIVQKLKDNKQMGLQPYPEILVVSRSPSLNLLQNKSM	not soluble
